{"source": "patent US20220170056A1", "about": "“COMPOSITIONS AND METHODS FOR BIOSYNTHESIS OF […] CANNABINOIDS IN A HE[…]” (INMED PHARMACEUTICALS INC., priority 2019, published 2022)", "key": {"MEP pathway flux": {"tested_on": "MEP pathway flux", "experiment": "Lycopene production (MEP pathway flux) in recombinant E. coli", "type": "cell-based, E. coli BL21(DE3)", "conditions": "for terpene titer (lycopene and isoprene), in words: IspDF2 and IspDF3 versions of the Dxs-IspDF-Idi chassis, FIG. 18", "description": "Both isoprene and lycopene starter cultures were cultivated overnight at 30° C. in LB media (Sigma-Aldrich) containing appropriate antibiotic/s. Isoprene starter cultures were then diluted to 15 mL with the medium to OD600 of 0.2, induced with arabinose and/or IPTG; and allowed to grow for 24 h at 30° C. in 25 mL sealed glass tube. Lycopene starter cultures were diluted to 5 mL with the medium to OD600 of 0.2, induced with IPTG, and allowed to grow for 24 h at 30° C. in culture tubes in the dark.\nLycopene is an intracellular product. 2 mL of cell culture was centrifuged at 8000 rpm for 5 min and lycopene was extracted by extraction from the pellet with 1 mL acetone. Extraction was performed at 55° C. with intermittent vortexing for 20 min in reduced light condition. The acetone suspension was centrifuged and filtered before analysis. Samples were analyzed on the PerkinElmer Flexar system equipped with Zorbax C-18 column (4.6×250 mm, Agilent Technologies) maintained at 30° C. Samples were run with mobile phase consisting of 66% (v/v) methanol, 30% (v/v) tetrahydrofuran and 4% (v/v) water at 1 mL/min flow rate. Lycopene detection was done by monitoring absorbance at 474 nm wavelength using a photodiode detector."}, "E. coli [1]": {"tested_on": "E. coli", "experiment": "Olivetolate (OA) uptake into E. coli expressing heterologous transporter", "type": "cell-based", "conditions": "24 to 48 hours after induction; compared to BL21 control without additional transporters (FIG. 8)", "description": "(§1) The following experimental host cells were tested: (1) E. coli transformed with plasmids encoding arabinose inducible transporters pcaK or pp3656; and (2)) E. coli transformed with plasmids encoding arabinose inducible transporters pcaK or pp3656 and B5 plasmid (encoding ispDF1 enzyme, GPPS, and an optimized variant NphB (see, Valliere et al.).\n(§2) Seed cultures of (1) were inoculated from glycerol stock into 5 mL LB with 34 μg/mL chloramphenicol, incubate at 30° C. overnight. Seed cultures of (2) were inoculated from glycerol stock into 5 mL LB with 34 μg/mL chloramphenicol and 50 μg/mL kanamycin, incubate at 30° C. overnight.\n(§3) Induction cultures of (1) were inoculated from seed culture into total culture volume 5 mL TB media with 0.1 mM OA and cultured at 30° C. until OD600 of 0.8. Cultures were induced by adding arabinose and magnesium to a final concentration of 5 mM arabinose and 5 mM MgCl2. During induction, cultures were incubated at 30° C. Induction culture samples were collected at 24 h and 48 hr time points after the start of induction.\n(§4) Cultures first centrifuged at 3000 rpm for 10 m to separate pellet and culture media supernatant fractions. Pellets also washed with PBS twice. Cell pellets lysed with B-PER Complete Reagent following manufacturer's protocol. […] Samples of the cell lysates were analyzed by SDS-PAGE analysis. […]"}, "E. coli [2]": {"tested_on": "E. coli", "experiment": "CBGA production in E. coli expressing NphB variant and transporter, fed OA", "type": "cell-based", "conditions": "cells expressing NphB variant; compared to control cell not expressing a heterologous transporter (FIG. 9)", "description": "as §1, §2\nas §3, with “(2)” for “(1)”, “0.5” for “0.1”, “OA, 5 mM MgCl2,” for “OA”, “arabinose” for “arabinose and magnesium”, “IPTG to a final concentration of 100 μM.” for “5 mM MgCl2.”\nas §4"}}}
{"molecule": "IspDF2: novel bifunctional IspD-IspF fusion from soil metagenome fosmid NR0032_O07, 42.1 kDa (protein) MQVTAIIAAGGRGRRFGGGVPKQLVGVGGRPILERTVAAFLGHPAIHEVVVALPAELMADPPAYLRAAPKPIRLVAGGVQRQDSVRQAFQAANEQSDVIVIHDAARPFASADLISRTIAAAAEGGAALAAVPARDTVKRGAFAAGRTGPAGRQAVEGAPLLVVAETLPRDSIYLAQTPQAFRRDVLRDALALGEAGSEATDEATLAERAGHIVRLVEGEPANIKITTPDDLLVAFRIGAGYDLHRLVEGRPLVLGGVTIPFERGLLGHSDADAICHAVTDAVLGAAAAGDIGRHFPDSDPKWRDWSSIDLLRRASAIVKGRGYAIANVDAVVIAERPKLAPFLDEMRANVAGAIGIAVDAVGIKGKTNEGLGELGRGEAIAVHAVALLHL", "values": [{"measurement": "terpene titer (lycopene and isoprene), in words", "setting": "MEP pathway flux", "result": "lowered the titer"}]}
{"molecule": "IspDF3: novel bifunctional IspD-IspF fusion from soil metagenome fosmid NR0037_N05, 40.2 kDa (protein) MVHVSAIIAAGGRGERFGGPQPKQLLLLGGVPILKRTVDAFLRGYPFIEVIVALPAEFVANPPDYLDDVIVVEGGARRQDSVANAFRAVAPSAQVVVIHDAARPLVTPSLIERTVDAAVKHGAAIAALRATDTVKRGDASRVIRGTLPRDEIFLAQTPQAFRAGVLRDALALAASAADATDEAMLAEQAGHHVRLVDGDPRNLKITTPEDLEMRIGNGYDLHRLVTGRPLVLGGVTIPFEKGLQGHSDADAVCHAITDAILGAASAGDIGRHFPDTDPAWKDAKSIVLLQQAAQIVSRAGYAIANLDVVVIAQQPKLVPHIDAIRHSVAHALGIDVQQVSVKGKTNEGVDSMGAGESIAVHAVALLQHS", "values": [{"measurement": "terpene titer (lycopene and isoprene), in words", "setting": "MEP pathway flux", "result": "lowered the titer"}]}
{"molecule": "IspEF fusion: non-natural fusion, E. coli IspE linked by flexible linker (FL) to E. coli IspF (protein) MRTQWPSPAKLNLFLYITGQRADGYHTLQTLFQFLDYGDTISIELRDDGDIRLLTPVEGVEHEDNLIVRAARLLMKTAADSGRLPTGSGANISIDKRLPMGGGLGGGSSNAATVLVALNHLWQCGLSMDELAEMGLTLGADVPVFVRGHAAFAEGVGEILTPVDPPEKWYLVAHPGVSIPTPVIFKDPELPRNTPKRSIETLLKCEFSNDCEVIARKRFREVDAVLSWLLEYAPSRLTGTGACVFAEFDTESEARQVLEQAPEWLNGFVAKGANLSPLHRAMLSLGGGGSAAAMRIGHGFDVHAFGGEGPIIIGGVRIPYEKGLLAHSDGDVALHALTDALLGAAALGDIGKLFPDTDPAFKGADSRELLREAWRRIQAKGYTLGNVDVTIIAQAPKMLPHIPQMRVFIAEDLGCHMDDVNVKATTTEKLGFTGRGEGIACEAVALLIKATK", "values": [{"measurement": "decrease in lycopene production than SALyc-SDFEI", "setting": "MEP pathway flux", "result": "at least 65%"}, {"measurement": "decrease in normalized lycopene titers than SALyc-SDFEI", "setting": "MEP pathway flux", "result": 85, "unit": "%"}, {"measurement": "lycopene production / titers, in words", "setting": "MEP pathway flux; comparison as stated in the sentence (FIGS. 21, 23, 25)", "result": "lowered the lycopene production substantially"}]}
{"molecule": "pcaK: MFS aromatic acid antiporter amplified from Pseudomonas putida KT2440 (protein, UniProt Q51955 1-448, looked up) 4-hydroxybenzoate transporter …: MNQAQNSVGKSLDVQSFINQQPLSRYQWRVVLLCFLIVFLDGLDTAAMGFIAPALSQEWGIDRASLGPVMSAALIGMVFGALGSGPLADRFGRKGVLVGAVLVFGGFSLASAYATNVDQLLVLRFLTGLGLGAGMPNATTLLSEYTPERLKSLLVTSMFCGFNLGMAGGGFISAKMIPAYGWHSLLVIGGVLPLLLALVLMVWLPESARFLVVRNRGTDKIRKTLSPIAPQVVAEAGSFSVPEQKAVAARSVFAVIFSGTYGLGTMLLWLTYFMGLVIVYLLTSWLPTLMRDSGASMEQAAFIGALFQFGGVLSAVGVGWAMDRYNPHKVIGIFYLLAGVFAYAVGQSLGNITVLATLVLIAGMCVNGAQSAMPSLAARFYPTQGRATGVSWMLGIGRFGAILGAWSGATLLGLGWNFEQVLTALLVPAALATVGVIVKGLVSHADAT", "values": [{"measurement": "olivetolate uptake inside cells", "setting": "E. coli [1]", "result": "increased olivetolate uptake"}, {"measurement": "production of CBGA", "setting": "E. coli [2]", "result": "increased production of CBGA"}]}
